Patent publication US6998260

target: human fibrinogen (UniProt P02671)
Sequence (P02671 20-629, chain 1 of 3): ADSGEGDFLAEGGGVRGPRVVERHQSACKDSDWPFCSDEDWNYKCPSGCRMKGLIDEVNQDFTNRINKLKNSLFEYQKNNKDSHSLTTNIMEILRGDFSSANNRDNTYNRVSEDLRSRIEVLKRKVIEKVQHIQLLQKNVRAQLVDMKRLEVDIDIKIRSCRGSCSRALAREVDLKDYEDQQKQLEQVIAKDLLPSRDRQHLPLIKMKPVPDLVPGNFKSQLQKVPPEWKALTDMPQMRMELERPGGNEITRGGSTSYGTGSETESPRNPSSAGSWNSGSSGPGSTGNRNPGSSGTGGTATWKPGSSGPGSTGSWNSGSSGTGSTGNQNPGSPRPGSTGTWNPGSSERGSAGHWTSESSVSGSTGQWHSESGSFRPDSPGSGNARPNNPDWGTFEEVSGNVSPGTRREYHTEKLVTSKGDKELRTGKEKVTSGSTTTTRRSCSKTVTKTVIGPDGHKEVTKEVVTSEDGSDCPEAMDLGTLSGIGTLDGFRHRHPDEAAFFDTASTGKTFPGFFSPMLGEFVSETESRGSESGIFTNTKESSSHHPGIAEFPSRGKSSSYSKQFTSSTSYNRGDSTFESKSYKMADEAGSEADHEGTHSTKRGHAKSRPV
Sequence (chain, as listed by the source, chain 2 of 3): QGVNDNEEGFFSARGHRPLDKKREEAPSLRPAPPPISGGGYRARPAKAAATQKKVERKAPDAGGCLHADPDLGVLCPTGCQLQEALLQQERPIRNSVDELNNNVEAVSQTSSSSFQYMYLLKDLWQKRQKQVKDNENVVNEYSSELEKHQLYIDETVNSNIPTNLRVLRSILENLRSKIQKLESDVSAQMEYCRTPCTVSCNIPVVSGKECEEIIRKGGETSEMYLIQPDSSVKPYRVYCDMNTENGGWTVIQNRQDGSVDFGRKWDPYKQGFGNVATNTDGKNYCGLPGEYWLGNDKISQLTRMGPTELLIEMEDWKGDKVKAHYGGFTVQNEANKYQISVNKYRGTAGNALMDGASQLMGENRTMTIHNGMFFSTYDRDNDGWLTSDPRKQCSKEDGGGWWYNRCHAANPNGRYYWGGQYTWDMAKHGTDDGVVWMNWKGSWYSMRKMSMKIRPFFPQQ
Sequence (chain, as listed by the source, chain 3 of 3): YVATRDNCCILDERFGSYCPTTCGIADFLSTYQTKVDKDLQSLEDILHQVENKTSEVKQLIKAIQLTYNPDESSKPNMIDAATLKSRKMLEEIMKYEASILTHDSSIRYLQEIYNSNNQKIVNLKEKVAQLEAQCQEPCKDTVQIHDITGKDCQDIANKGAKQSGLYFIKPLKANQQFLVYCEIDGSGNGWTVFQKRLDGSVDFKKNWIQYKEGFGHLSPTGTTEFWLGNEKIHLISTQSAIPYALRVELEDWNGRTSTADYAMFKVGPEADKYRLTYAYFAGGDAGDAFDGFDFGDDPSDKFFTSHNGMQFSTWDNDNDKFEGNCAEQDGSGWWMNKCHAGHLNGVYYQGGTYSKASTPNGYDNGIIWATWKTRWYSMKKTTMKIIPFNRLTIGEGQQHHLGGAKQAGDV

Chain of recombinant human β-II tryptase (from pPIC9-HumTryN102K, expressed in Pichia pastoris) (chain, as listed by the source): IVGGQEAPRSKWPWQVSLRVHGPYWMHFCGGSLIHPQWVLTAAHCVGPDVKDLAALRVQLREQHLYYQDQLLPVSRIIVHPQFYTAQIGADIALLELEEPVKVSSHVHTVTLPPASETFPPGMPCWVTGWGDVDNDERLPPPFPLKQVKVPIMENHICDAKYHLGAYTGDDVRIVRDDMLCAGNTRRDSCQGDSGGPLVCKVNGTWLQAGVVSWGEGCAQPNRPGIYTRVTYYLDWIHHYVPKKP
Chain of recombinant human β-I tryptase (from pPIC9-HumTry, expressed in Pichia pastoris) (chain, as listed by the source): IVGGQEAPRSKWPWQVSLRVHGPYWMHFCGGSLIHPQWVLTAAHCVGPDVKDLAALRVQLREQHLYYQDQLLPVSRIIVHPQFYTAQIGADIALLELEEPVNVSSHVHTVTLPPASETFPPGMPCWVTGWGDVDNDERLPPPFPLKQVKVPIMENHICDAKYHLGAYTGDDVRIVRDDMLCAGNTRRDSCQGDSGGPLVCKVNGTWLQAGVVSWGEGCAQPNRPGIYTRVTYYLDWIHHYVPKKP

Row | Substance | fibrinogen cleavage (SDS-PAGE of fibrinogen subunits after 60 min incubation)
1 | recombinant human β-I tryptase (from pPIC9-HumTry, expressed in Pichia pastoris) | The a and β subunits were efficiently hydrolyzed by the recombinant β-I and β-II tryptase enzymes even during cold incubation.
2 | recombinant human β-II tryptase (from pPIC9-HumTryN102K, expressed in Pichia pastoris) | The a and β subunits were efficiently hydrolyzed by the recombinant β-I and β-II tryptase enzymes even during cold incubation.
3 | β-tryptase isolated from a cadaver (native β) | Native β-tryptase was less efficient at fibrinogeneolysis
